The source of these data is US20090017017A1 (SYMPHOGEN A S, published 2009).

T1: Rhesus D antigen (human, UniProt Q02161 2-417)
T1 construct: whole, on cells; Presented on RhD(+) erythrocytes; also called RhD; RhD antigen
T1 sequence (looked up): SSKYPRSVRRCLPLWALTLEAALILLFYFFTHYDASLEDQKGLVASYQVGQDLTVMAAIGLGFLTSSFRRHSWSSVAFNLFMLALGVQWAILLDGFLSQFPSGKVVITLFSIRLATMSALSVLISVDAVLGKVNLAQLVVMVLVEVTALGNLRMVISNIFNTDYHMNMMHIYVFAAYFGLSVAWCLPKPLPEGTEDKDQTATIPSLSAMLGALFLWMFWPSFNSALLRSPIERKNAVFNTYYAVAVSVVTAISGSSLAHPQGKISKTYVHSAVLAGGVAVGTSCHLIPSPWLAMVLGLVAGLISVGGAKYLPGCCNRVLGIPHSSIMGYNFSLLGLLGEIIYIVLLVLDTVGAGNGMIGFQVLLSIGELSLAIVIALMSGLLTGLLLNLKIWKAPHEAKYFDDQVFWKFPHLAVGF

B1: RhD163.119A02 (Fab, V domains shown)
VH: QVQLQESGPGLVKPSETLSLTCTVSGGSISSYYWSWVRQPPGKGLEWIGYIYYSGSTNYNPSLKSRVTIALDTSKNQFSLKLRSVTAADTAVYFCTRDWRQYGSAIRGSRYYYGMDVWGQGTTVTVSS
VL: EIVLTQSPGTLSLSPGERATLSCRASQNPRRNFLAWYQQKPGQAPRLLIYAASTRATGIPDRFSGSGSGTDFTLTIDRLEPEDSAVYYCQVYGSSPLYTFGQGTKVEMKR
notes: Tested as Fab in E. coli periplasmic extract (VH on human gamma 1 CH1, vector Em351)
B2: RhD162.119G12 (Fab, V domains shown)
VH: QVQLVESGGGLVKPGGSLRLSCAASGFGFSAYSMNWVRQAPGKGLEWVSSITSTTTYYADSVKGRFSISRDNAKSTLYLRMNSLRAEDTAVYYCVREIAFRGSTYSRWSYYFDFWGQGTLVTVSS
VL: DIQLTQSPSSVSASVGDSVTITCRASQAVSGWVAWYQQKPGKAPKLLIFGLSNLEDGVPSRFSGSGSATDFTLTITGLQPEDLATYYCLQANRFPLSFGGGTRVEIKR
notes: as for B1
B3: RhD323.229B07 (Fab, V domains shown)
VH: QVQLVESGGGVVQPGRSLRLSCAASGFTFSSYGMHWVRQAPGKGLEWVAVIWYDGSNKYYADSVKGRFTISRDNSKNTLYLQMNSLRAEDTAVYYCARDWVTRSSNWYRNYYYYGMDVWGQGTTVTVSS
VL: DIQMTQSPSSLSASVGDRVTITCRASQSISSYLNWYQQKPGKAPKLLIYAASTLQSGVPSRFSGSGSGTDFTLTISSLQPEDFATYYCQQYYRTPTWTFGQGTKVEIKR
notes: as for B1
B4: RhD189.181E07 (Fab, V domains shown)
VH: QVQLVESGGGVVQPGRSLRLSCAASGFTFSSYGMHWVRQAPGKGLEWVAVIWYDGSNKYYADSVKGRFTISRDNSKNTLYLQMNSLRAEDTAVYYCARDMVTMVRGAYRNYYYYGMDVWGKGTTVTVSS
VL: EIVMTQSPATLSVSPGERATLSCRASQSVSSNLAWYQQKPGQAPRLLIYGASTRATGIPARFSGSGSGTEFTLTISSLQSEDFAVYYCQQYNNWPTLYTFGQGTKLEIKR
notes: as for B1
B5: RhD324.231F07 (Fab, V domains shown)
VH: EVQLVESGGGLVQPGRSLRLSCVASGFTFSSYWMHWVRQVPGKGLVWVSRINVDGKSTSYADSVKGRFTISRDNAKNTLYLQMNSLRAEDTAVYYCARDPRRFLEWARYGMDVWGRGTTVTVSS
VL: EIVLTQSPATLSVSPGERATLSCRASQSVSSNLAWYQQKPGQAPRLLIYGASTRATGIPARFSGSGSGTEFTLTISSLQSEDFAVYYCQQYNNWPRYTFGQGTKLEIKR
notes: as for B1

The target in the experiment is T1, Rhesus D antigen. Kind of experiment: Fab screening on RBC (agglutination, FACS). On the procedure: After each round of panning single colonies were picked for analysis of their binding properties to red blood cells in agglutination assays. Briefly, single colonies were inoculated into 2×YT/100 μg/mL carbenicillin/1% glucose and shaken overnight at 37° C. The next day, DeepWell plates were inoculated using 900 μl 2×YT/100 μg/mL carbenicillin/0.1% glucose and 10 μl overnight culture. The plates were shaken for two hours at 37° C., before Fab induction was performed with addition of 300 μl 2×YT/100 μg/mL carbenicillin/0.25 mM IPTG per well. The plate was shaken overnight at 30° C. The following day, the bacteria were pelleted by centrifugation (3200×g, 4° C., 10 minutes), and re-suspended in 100 μl of 0.8 M NaCl, 0.2×PBS, 8 mM EDTA, and incubated for 15 minutes on ice in order to perform a periplasmic extraction of the Fab fragments. The plate was transferred to −20° C. and finally the suspension was thawed and centrifugation was performed for 10 minutes at 4° C. and 3200×g. The periplasmic extract was used in ELISA assays for analysis of Fab content and in agglutination assays to evaluate the binding potential of the individual Fab fragments.
The agglutination assay was performed as follows: RhD(−) and RhD(+) RBC were mixed in a 1:1 ratio, and washed 3 times in PBS. After the final wash, the cell mix was re-suspended in 1% BSA in PBS at a density of 10% cells, 50 μl was added to each well of a 96-plate. Periplasmic extracts were added to the wells. As a positive control Rhesogamma P immunoglobulin (Aventis) was used according to the manufacturer's instructions. The plates were incubated for one hour at room temperature with gentle shaking. The cells were washed three times with PBS, before the secondary antibody was added (goat anti-human Fab/FITC conjugate, Sigma F5512) in a 1:100 dilution. The plates were left for agglutination for one hour at room temperature without shaking. Fab fragments positive in the agglutination assay was determined by visual inspection, and recorded by taking a picture. Quantization of the binding activity of the Fab fragments was performed by FACS analysis of the agglutination samples.
As for B1, the binding result is given as “binds”.

For B2, the binding result was “binds”.

B3: the binding result is on record as “binds”.

Turning to B4, the binding result is listed as “binds”.

In the case of B5, the binding result is listed as “binds”.
